In US20080102065A1 (published 2008):

T1: biotinylated mouse EpoR-Fc protein (muEpoR-Fc) (mouse, UniProt P14753 25-249, limits assumed, biotinylated)
T1 construct: also called mouse EpoR (muEpoR); not shown: Fc part
T1 sequence (looked up): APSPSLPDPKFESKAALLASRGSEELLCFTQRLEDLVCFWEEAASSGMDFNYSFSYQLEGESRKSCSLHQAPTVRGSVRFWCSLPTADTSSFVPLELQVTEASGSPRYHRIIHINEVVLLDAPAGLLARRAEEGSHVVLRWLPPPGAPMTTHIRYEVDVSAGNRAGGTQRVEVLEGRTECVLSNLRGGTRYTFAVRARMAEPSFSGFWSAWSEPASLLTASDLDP


target: T1, biotinylated mouse EpoR-Fc protein …; assay: ELISA, antibody coated at 1 µg/ml, biotinylated muEpoR-Fc at 5 µg/ml, streptavidin-HRP
Procedure: Individual scFv-Fc proteins or IgG₂ proteins (100 μl of a 1 μg/ml antibody stock in 50 mM NaHCO₃, pH8.5) were added to each well on a Nunc-Immuno Polysorp ELISA plate (Nalge Nunc International) such that each well comprised only a single clone. The plate was incubated at 4° C. overnight. After blocking the wells with 4% milk/PBS/0.1% tween 20 for 1 hour at room temperature, plates were washed three times with PBS/0.1% tween 20. 100 μl of 5 μg/ml biotinylated muEpoR-Fc protein was added to each well and incubated for 1 hour at 25° C. […] 2,2′-azino-bis(3-ethylbenzthiazoline-6-sulphonic acid) (ABTS) was used as a substrate and the absorption was measured at 405 nm on a plate reader.

| binding result | Binder |
| --- | --- |
| binds | clone 30 IgG2 protein (antibody, V domains shown, Human IgG2 (VH in an IgG2 heavy chain expression vector; light chain constant type matches the variable light chain isotype)) VH: QVQLQESGPGLVKPSQTLSLTCAISGDSVSSNSAAWNWIRQSPSRGLEWLGRTYYRSKWYNDYAVSVKSRMTIKADTSKNQFSLQLNSVTPEDTAVYYCARDEGPLDYWGQGTLVTVSA VL: QAVLTQPSSVSGAPGQRVTISCTGSSSNLGTGYDVHWYQQLPGTAPKLLIYGNSNRPSGVPDRFSGSKSDTSGLLAITGLQAEDEATYYCQSYDFSLSAMVFGGGTKVTVL |
| binds | clone 2 IgG2 protein (antibody, V domains shown, Human IgG2 (VH in an IgG2 heavy chain expression vector; light chain constant type matches the variable light chain isotype); also called IgG2 2; IgG22) VH: EVQLVQSGGGLVQPGGSLRLSCAASGFTFSSYWMSWVRQAPGKGLEWVANIKPDGSEKYYVDSVKGRFTISRDNAKNSVYLQMNSLRAEDTAVYYCARVSRGGSYSDWGQGTLVTVSS VL: QSVLTQPPSASGSPGQSVTISCTGTSSDVGGYNYVSWYQQHPGKAPKLMIYEVSKRPSGVPDRFSGSKSGNTASLTVSGLQPEDEADYYCSSYAGRNWVFGGGTQLTVL |
| binds | clone 7 IgG2 protein (antibody, V domains shown, Human IgG2 (VH in an IgG2 heavy chain expression vector; light chain constant type matches the variable light chain isotype)) VH: EVQLVQSGGGLVQPGGSLRLSCAASGFTFSSYWMSWVRQAPGKGLEWVANIKPDGSEKYYVDSVKGRFTISRDNAKNSVYLQMNSLRAEDTAVYYCARVSRGGSYSDWGKGTLVTVSS VL: QSALTQPASVSGSPGQSIIISCTGTRSDIGGYNYVSWYQHHPGRAPKLIIFDVNNRPSGVSHRFSGSKSGNTASLTISGLQAEDEADYYCNSFTDSRTWLFGGGTKLTVL |
| binds | clone 5 IgG2 protein (antibody, V domains shown, Human IgG2 (VH in an IgG2 heavy chain expression vector; light chain constant type matches the variable light chain isotype); also called IgG2 5; IgG25) VH: EVQLVESGGGLVQPGGSLRLSCAASGFTFSSYWMSWVRQAPGKGLEWVANIKPDGSEKYYVDSVKGRFTISRDNAKNSVYLQMNSLRAEDTAVYYCARVSRGGSYSDWGQGTLVTVSS VL: QSALTQPASVSGSPGQSITISCTGTSSDVGGYIYVSWYQQHPGKAPKLMIYDVSRRPSGISDRFSGSKSGNTASLTISGLQAEDEADYYCNSYTTLSTWLFGGGTKVTVL |
| binds | clone 10 IgG2 protein (antibody, V domains shown, Human IgG2 (VH in an IgG2 heavy chain expression vector; light chain constant type matches the variable light chain isotype)) VH: not shown VL: QSVLTQPPSVSEAPGQRVTIACSGSSSNIGNNAVSWYQQLPGKAPTLLIYYDNLLPSGVSDRFSGSKSGTSASLAISGLQSEDEADYYCAAWDDSLNDWVFGGGTKVTVL |
